Measurements taken from the supplement of paper PMC9170038.

Tested on: MS2 coat protein
Test: apparent KD of MS2 coat protein; designed switch direction (-1 OFF switch, 1 ON switch): -1; higher = weaker reporter binding
Procedure, shortened: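 Designed RNA switches sharing common flanks were transcribed on Illumina chips by stalled E. coli RNA polymerase. They were titrated with SNAP-549-labelled MS2 coat protein, from 0.7 or 1.5 nM doubling to 3 µM, in Tris-HCl pH 7.5 buffer with KCl, MgCl2, BSA, DTT, tRNA and Tween-20. Titrations ran without input, with 200 uM small-molecule ligand, or with an oligonucleotide input. The apparent KD of each design is the median over its clusters, after curve-fitting of normalised cluster fluorescence.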

[1] = input ligand: microRNA oligo, concentration not stated
[2] = Eterna round: R95, input ligand: FMN 200 uM
[3] = Eterna round: R95, input ligand: microRNA oligo, concentration not stated
[4] = Eterna round: R95, input ligand: none

Sequence	apparent KD of MS2 coat protein (input ligand: FMN 200 uM)	apparent KD of MS2 coat protein (input ligand: none)	apparent KD of MS2 coat protein [3]	further results
CCAUAGUGAGGAUAUGUAAACGUGUUGGCGAAAUCAGCACGGCAGAAGGCACAUGAGGAUCACCCAUGUCCUGA [Eternabot (L2) Solution 45] (Eterna round: R97, puzzle: Exclusion 4)	25.9 nM	20.8 nM		
CCAUAUAGGCGAGGAUAUACGCACCACUAACUAGUAGAAGGCGCACAUGAGGAUCACCCAUGUGAUUUCUCAAUAUUAUACAUC [Prohibition 72 - Jieux - Exclusion NG 1] (Eterna round: R96, puzzle: Exclusion NG 1)	174 nM	157 nM		apparent KD of MS2 coat protein [1]: 107 nM
CCAUCGAGUGUGAGGAUAUGCUGGUCCAUAGAUCAGCAGAAGGCACAUGAGGAUCACCCAUGUGGAGACGGUGG [Mat - Exclusion 4 - JL Mod - D78] (Eterna round: R96, puzzle: Brourd's mod of Exclusion 4)				apparent KD of MS2 coat protein [1]: 31 nM
CCAUCGAGUGUGAGGAUAUGCUGGUCCAUAGAUCAGCAGAAGGCACAUGAGGAUCACCCAUGUGGAGACGGUGG [Mat - Exclusion 4 - JL Mod - D78] (puzzle: Brourd's mod of Exclusion 4)			34.4 nM	apparent KD of MS2 coat protein [2]: 418 nM; apparent KD of MS2 coat protein [4]: 36.6 nM
CCAUCGAGUGUGAGGAUAUGCUGGUCCUUGGAUCAGCAGAAGGCACAUGAGGAUCACCCAUGUGGAGACGGUGG [JL bmx4 3.18] (puzzle: Brourd's mod of Exclusion 4)			44.3 nM	
CCAUCGUGUGUGAGGAUAUGCUGGUCCUUGGAUCAGCAGAAGGCACAUGAGGAUCACCCAUGUGAAUACGGUGG [JL bmx4 3.21] (puzzle: Brourd's mod of Exclusion 4)			17.8 nM	
CCCAAGUCAGGAUAUGGAACACAGAGACAUCUCUGUGCCCACCAGAAGGGACAUGAGGAUCACCCAUGUGAUGA [Soesat] (puzzle: Exclusion 4)			56.6 nM	
CCCACAAGCUUUUUGCUCGACAUGAGGAUCACCCAUGUAAAAUGGGUAAAUUUAAAUUUAAAUUUAUUUAAAUUGGG [-18.1, -41.9 kcal, A 34%] (Eterna round: R97, puzzle: Sensor, turn-off variant 1)	80.9 nM	102 nM		
CCCACAAGCUUUUUGCUCGACAUGAGGAUCACCCAUGUUGAAUGGGUUAUAUAUAUAUGAAACAUAUAUAUAUACCU [-24.7, -47.5 kcal, A 32%] (Eterna round: R97, puzzle: Sensor, turn-off variant 1)	20.4 nM	20.2 nM		
CCCACCUCAUGAACAACAUGAGGAUCACCCAUGUUGAAGACUAAGGAUAUCGUACUCGAUGAAUGCGAGAAGGUGGCACUUCGA [Eternabot solution 36] (Eterna round: R96, puzzle: Exclusion NG 3)	37.3 nM	28.7 nM		apparent KD of MS2 coat protein [1]: 20.7 nM
CCCACGUGAGGAUAUUCAACGGUAAGCGAUCUAUGCACCUUGAAGAAGGCACAUGAGGAUCACCCAUGUCCUAA [Eternabot (L1) Solution 44] (Eterna round: R97, puzzle: Exclusion 4)	44.8 nM	22.2 nM		
CCCAGUUACUGAGGAUAUCCUACAUGAGGAUCACCCAUGUAAUAAAUGAGGAUUUCGGGUGUCUAGGAGAAGGCAGGGAUAGGC [Ostracism 23 - Jieux - Exclusion NG 2] (Eterna round: R96, puzzle: Exclusion NG 2)	84.9 nM	50.3 nM		apparent KD of MS2 coat protein [1]: 28.8 nM
CCCAGUUAGAGAGGAUAUCUUACAUGAGGAUCACCCAUGUAAUAAAUGAGGAUUUCGGGUGUCUAAGAGAAGGCUCGGAUAGGC [Ostracism 29 - Jieux - Exclusion NG 2] (Eterna round: R96, puzzle: Exclusion NG 2)	37.9 nM	26.4 nM		apparent KD of MS2 coat protein [1]: 15.3 nM
CCCAGUUAUCUAGGAUAUUGUACAUGAGGAUCACCCAUGUAAUAAAUGAGGAUUUCGGGUGUCUACAAGAAGGAGAGGAUAGGC [Ostracism 16 - Jieux - Exclusion NG 2] (Eterna round: R96, puzzle: Exclusion NG 2)				apparent KD of MS2 coat protein [1]: 20.4 nM
CCCAUGUUAGGAUAUAUGGAAGGGCGGACGGGCGCCCUAAGGUAGAAGGGACAUGAGGAUCACCCAUGUAAUAA [Diquar] (Eterna round: R97, puzzle: Exclusion 4)	194 nM	160 nM		
CCCAUGUUAGGAUAUCGGCUCCGCCGUUCCACAUGGCGCUCCGAGAAGGAACAUGAGGAUCACCCAUGUAAAGA [Raza] (puzzle: Exclusion 4)			34 nM	
CCCGAGCAUGUAGGAUAUGGCUCGGUGUCUGGGCCAGAAGGACAUGAGGAUCACCCAUGUCUGCGGGUGUGGAUAUGAUUUGGG [-32, -31 kcal A 20%] (Eterna round: R96, puzzle: Exclusion NG 1)	85.2 nM	32.1 nM		apparent KD of MS2 coat protein [1]: 14.5 nM
CCCGUCGAUGUAGGAUAUGCCCGGGUCUCCCGGGCAGAAGGACAUGAGGAUCACCCAUGUUCAUGAGGGUCGCCCAUGAAUGGG [Double but mutated MS2] (Eterna round: R96, puzzle: Exclusion NG 1)	88.8 nM	21.2 nM		apparent KD of MS2 coat protein [1]: 17 nM

Sequence	apparent KD of MS2 coat protein (input ligand: FMN 200 uM)	apparent KD of MS2 coat protein (input ligand: none)	apparent KD of MS2 coat protein [3]	further results
CCCGUGUAAGGAUAUGACAAUGGUAUCUUCGGAUACCAUUGUCAGAAGGUACAUGAGGAUCACCCAUGUAACAC [Ex4-3: 14] (puzzle: Exclusion 4)			28 nM	
CCCUCAAGCGAGGAUAUAAAUGCGCAUUCGCGGUUAGAAGGCGCUACAUGAGGAUCACCCAUGUAAUUGUAUGG [jl-ex6-4.53 ViennaUCT mod] (Eterna round: R97, puzzle: Exclusion 6)	98.4 nM	73.4 nM		
CCCUCACAUGAGGAUCACCCAUGUCAGGAUAUUCGACGGUAAAUUGGCCGUCUUAAAGGAAGAAGGGACGUAAC [Lesoorxe] (puzzle: Exclusion 1)			13 nM	
CCCUCACAUGAGGAUCACCCAUGUUAGGAUAUCUACCAGGAGCCUAAAAUGGCCCAACGGAGAAGGAACGUGCA [Arbire] (Eterna round: R96, puzzle: Exclusion 1)				apparent KD of MS2 coat protein [1]: 14.7 nM
CCCUUGUGAGGAUAUUCUUAAAAUGCUAACCACAAUUUUAUGAAGAAGGCACAUGAGGAUCACCCAUGUUUCUC [mod1] (Eterna round: R97, puzzle: Exclusion 4)	80.5 nM	96.4 nM		
CCGAAACAUGAGGAUCACCCAUGUGAGGAUAUGAGCGUCUAGUUGAGAGAUUGGACGCUCAGAAGGCACAAAGG [JR_Ex1_Sub074] (Eterna round: R97, puzzle: Exclusion 1)	105 nM	35.5 nM		
CCGAAGCUAGGAUAUACAUGAGGAUCACCCAUGUAAUCUCAUUUACGGGUCGGGCGCAGUAGAAGGAGCAAAGU [EX3 B.17] (Eterna round: R97, puzzle: Exclusion 3)	17.5 nM	15.6 nM		
CCGAAUAAGCAGGAUAUCGAAUCGGAGACGAUUCGAGAAGGGUUAACAUGAGGAUCACCCAUGUUCCUUAACGG [Mat - Exclusion 6 - Eli Mod - D79] (puzzle: Exclusion 6)			17.3 nM	
CCGAAUAUGCAGGAUAUCGUAUAGGAAACUAUACGAGAAGGGUAAACAUGAGGAUCACCCAUGUUCCUUAACGG [Mat - Exclusion 6 - Eli Mod - D81] (puzzle: Exclusion 6)			20.3 nM	
CCGAAUAUGCAGGAUAUCUUAUCGGAAACGAUAAGAGAAGGGUAAACAUGAGGAUCACCCAUGUUCCUUAACGG [Mat - Exclusion 6 - Eli Mod - D80] (puzzle: Exclusion 6)			18.9 nM	
CCGAGGUGGCGGUCCUAUGACAUGAGGAUCACCCAUGUACCUCGCCACAAGCUCUUUGCUCAUCUUAUAGUUCUCGG [Onlaor] (Eterna round: R96, puzzle: Sensor v3, turn-off variant 1)	19.9 nM	24.5 nM		apparent KD of MS2 coat protein [1]: 132 nM
CCGAGGUGGCGGUCCUAUGACAUGAGGAUCACCCAUGUACCUCGCCACAAGCUCUUUGCUCAUCUUAUAGUUCUCGG [Onlaor] (puzzle: Sensor v3, turn-off variant 1)			124 nM	apparent KD of MS2 coat protein [2]: 18.6 nM; apparent KD of MS2 coat protein [4]: 17.9 nM
CCGAGGUGGCGGUCCUAUGACAUGAGGAUCACCCAUGUACCUCGCCACGAGCCUUUUGCUCAUCUUAUAAUUCUCGG [Bienve] (puzzle: Sensor v3, turn-off variant 1)			20.6 nM	apparent KD of MS2 coat protein [2]: 17.4 nM; apparent KD of MS2 coat protein [4]: 17.2 nM
CCGCAAAAGCAGGAUAUCGUAUCGGAAACGAUACGAGAAGGGUUUACAUGAGGAUCACCCAUGUUCCUUAGCGG [Mat - Exclusion 6 - Eli Mod - D101] (puzzle: Exclusion 6)			28.7 nM	
CCGCAAAAGGAGGAUAUCGUAUCGGAUACGAUACGAGAAGGCCUAACAUGAGGAUCACCCAUGUGUCCUAGCGG [Fiskers Ex 6 - 36] (puzzle: Exclusion 6)			14.8 nM	apparent KD of MS2 coat protein [2]: 23.8 nM; apparent KD of MS2 coat protein [4]: 14.5 nM
CCGCAAAUGGAGGAUAUCGUAUCGGAGACGAUACGAGAAGGCCAAACAUGAGGAUCACCCAUGUGUCCUAGCGG [Mat - Exclusion 6 - Eli Mod - D102] (puzzle: Exclusion 6)			15.1 nM	apparent KD of MS2 coat protein [2]: 29.3 nM; apparent KD of MS2 coat protein [4]: 16 nM
CCGCAGUGAGGAUAUUGUCAUAGACGGUGUGAAUCACGGGACAAGAAGGUACAUGAGGAUCACCCAUGUGGGUG [Eternabot (L1) Solution 1] (Eterna round: R97, puzzle: Exclusion 4)	54.3 nM	1560 nM		
